Data on ten molecules can be found in patent publication US20240117385A1, “ENZYMES OF LUCIFERIN BIOSYNTHESIS AND USE THEREOF” (LIGHT BIO, INC., priority 2018, published 2024).

The series has as its system Pichia pastoris GS115 yeast cells expressing luciferase, hispidin hydroxylase and coumarate-CoA ligase 1. As to the kind of experiment: Screening of PKS for hispidin-synthase activity in yeast colonies sprayed with caffeic acid. It is filed as cell-based. Particulars: colonies sprayed with caffeic acid solution. The source says:
The selected nucleotide sequences for expression in Pichia pastoris yeast cells and Nicotiana benthamiana plant cells were optimized. The resulting nucleic acids were obtained synthetically and cloned into pGAPZ vector and used for verifying ability of the expressed proteins to synthesize hispidin.
For this purpose, in genome of Pichia pastoris GS115 yeast line, constitutively expressing Neonothopanus nambi luciferase and hispidin hydroxylase, obtained according to Example 1, there was additionally introduced pGAPZ plasmid, comprising gene of
Arabidopsis thaliana coumarate-CoA ligase 1 (which nucleotide and amino acid sequence are shown in SEQ ID NOs: 140, 141), also obtained by oligonucleotide synthesis. The plasmid was linearized at restriction site AvrII and used for transformation into Pichia pastoris GS115 cells.
The obtained yeast cells, constitutively expressing Neonothopanus nambi luciferase and hispidin hydroxylase and Arabidopsis thaliana coumarate-CoA ligase 1, were […] by plasmids comprising coding PKS sequences, and dispersed in Petri dishes with RDB medium, comprising 1 M of sorbitol, 2% (weight/volume) of glucose, 1.34% (weight/volume) of yeast nitrogen base (YNB), 0.005% (weight/volume) of amino acids mixture, 0.00004% (weight/volume) of biotin and 2% (weight/volume) of agar. To identify enzymes having hispidin-synthase activity, the obtained colonies were sprayed with caffeic acid solution, detecting hispidin-synthase presence in cells by occurrence of luminescence. Luminescence emitted by colonies was detected by means of IVIS Spectrum CT (Perkin Elmer, USA). Yeast line constitutively expressing luciferase, hispidin hydroxylase and coumarate-CoA ligase 1, and also wild yeast cells were used as negative control. […] Amino acid sequences coded by then are shown in SEQ ID NOs: 119, 121, 123, 125, 127, 129, 131, 133, 135, 137, 139 respectively.

B1: SEQ ID NO: 133: plant type III polyketide synthase (PKS) (protein, listed as Rheum tataricum)
chain: MAPEESRHAETAVNRAATVLAIGTANPPNCYYQADFPDFYFRATNSDHLTHLKQKFKRICEKSMIEKRYLHLTEEILKENPNIASFEAPSLDVRHNIQVKEVVLLGKEAALKAINEWGQPKSKITRLIVCCIAGVDMPGADYQLTKLLGLQLSVKRFMFYHLGCYAGGTVLRLAKDIAENNKEARVLIVRSEMTPICFRGPSETHIDSMVGQAIFGDGAAAVIVGANPDLSIERPIFELISTSQTIIPESDGAIEGHLLEVGLSFQLYQTVPSLISNCIETCLSKAFTPLNISDWNSLFWIAHPGGRAILDDIEATVGLKKEKLKATRQVLNDYGNMSSACVFFIMDEMRKKSLANGQVTTGEGLKWGVLFGFGPGVTVETVVLSSVPLIT
Consider B1, for which the hispidin-synthase activity entry is “had hispidin-synthase activity”.

B2: SEQ ID NO: 131: plant type III polyketide synthase (PKS) (protein)
chain: MATEEMKKLATVMAIGTANPPNCYYQADFPDFYFRVTNSDHLINLKQKFKRLCENSRIEKRYLHVTEEILKENPNIAAYEATSLNVRHKMQVKGVAELGKEAALKAIKEWGQPKSKITHLIVCCSAGVDMPGADYQLTKLLDLDPSVKRFMFYHLGCYAGGTVLRLAKDIAENNKGARVLIVCSEMTTTCFRGPSETHLDSMIGQAILGDGAAAVIVGADPDLTVERPIFELVSTAQTIVPESHGAIEGHLLESGLSFHLYKTVPTLISNNIKTCLSDAFTPLNISDWNSLFWIAHPGGPAILDQVTAKVGLEKEKLKVTRQVLKDYGNMSSATVFFIMDEMRKKSLENGQATTGEGLEWGVLFGFGPGITVETVVLRSVPVIS
modifications: Amino acid sequence of the mutant L132S PKS from Rheum palmatum, optimized for expression in Nicotiana benthamiana
For the molecule B2, the hispidin-synthase activity entry was “had hispidin-synthase activity”.

B3: SEQ ID NO: 125: type III polyketide synthase from Hydrangea macrophylla (protein, listed as Hydrangea macrophylla)
chain: MATKSVAVEEMCKAQKAGGPATILAIGTAVPSNCYYQSEYPDFYFRVTKSDHLTDLKSKFKRMCERSSIKKRYMHLTEEILEENPNMCTFAAPSIDGRQDIVVKEIPKLAKEAASKAIKEWGQPKSNITHLVFCTTSGVDMPGCDYQLTRLLGLRPSIKRLMMYQQGCHAGGTGLRLAKDLAENNKGARVLVVCSEMTVINFRGPSEAHMDSLVGQSLFGDGASAVIVGSDPDLSTEHPLYQIMSASQIIVADSEGAIDGHLRQEGLTFHLRKDVPSLVSDNIENTLVEAFTPILMDSIDSIIDWNSIFWIAHPGGPAILNQVQAKVGLKEEKLRVSRHILSEYGNMSSACVFFIMDEMRKRSMEEGKGTTGEGLEWGVLFGFGPGFTVETIVLHSVPI
Consider B3, for which the hispidin-synthase activity entry is recorded as “had hispidin-synthase activity” and the “hispidin-synthase activity, comparison among PKS” value was “highest activity”.

B4: SEQ ID NO: 139: plant type III polyketide synthase (PKS) (protein, listed as Piper methysticum)
chain: MSKMVEEHWAAQRARGPATVLAIGTANPPNVLYQADYPDFYFRVTKSEHMTQLKEKFKRICDKSAIRKRHLHLTEELLEKNPNICAHMAPSLDARQDIAVVEVPKLAKEAATKAIKEWGRPKSDITHLIFCTTCGVDMPGADYQLTTLLGLRPTVRRTMLYQQGCFAGGTVLRHAKDFAENNRGARVLAVCSEFTVMNFSGPSEAHLDSMVGMALFGDGASAVIVGADPDFAIERPLFQLVSTTQTIVPDSDGAIKCHLKEVGLTLHLVKNVPDLISNNMDKILEEAFAPLGIRDWNSIFWTAHPGGAAILDQLEAKLGLNKEKLKTTRTVLREYGNMSSACVCFVLDEMRRSSLEEGKTTSGEGLEWGILLGFGPGLTVETVVLRSVPISTAN
For the molecule B4, the hispidin-synthase activity entry was “had hispidin-synthase activity”.

B5: SEQ ID NO: 129: plant type III polyketide synthase (PKS) (protein, listed as Polygonum cuspidatum)
chain: MAPAVADIRKAQRAEGPATVLAIGTATPPNCVYQKDYPDYYFRVTNSDHMTDLKEKFRRMCEKSNIEKRYMYLTEEILKENPNMCSYMQTSSLDTRQDMVVSEVPRLGKEAAQKAIKEWGQPKSKITHVIMCTTSGVDMPGADYQLTKLLGLHPSVKRFMMYQQGCFAGGTVLRLAKDLAENNRGARVLVVCSEITAICFRGPTDTHPDSMVGQALFGDGSGAVIIGADPDLSIEKPIFELVWTAQTILPDSEGAIDGHLREVGLTFHLLKDVPGLISKNIEKNLTEAFSPLNVSDWNSLFWIAHPGGPAILDQVETKLGLKEEKLKATRQVLNDYGNMSSACVLFIMDEMRKKSVENGHATTGEGLEWGVLFGFGPGLTVETVVLHSVPVAN
As to B5, the hispidin-synthase activity entry is “had hispidin-synthase activity”.

B6: SEQ ID NO: 123: type III polyketide synthase from Arabidopsis thaliana (protein, listed as Arabidopsis thaliana)
chain: MSNSRMNGVEKLSSKSTRRVANAGKATLLALGKAFPSQVVPQENLVEGFLRDTKCDDAFIKEKLEHLCKTTTVKTRYTVLTREILAKYPELTTEGSPTIKQRLEIANEAVVEMALEASLGCIKEWGRPVEDITHIVYVSSSEIRLPGGDLYLSAKLGLRNDVNRVMLYFLGCYGGVTGLRVAKDIAENNPGSRVLLTTSETTILGFRPPNKARPYDLVGAALFGDGAAAVIIGADPRECEAPFMELHYAVQQFLPGTQNVIEGRLTEEGINFKLGRDLPQKIEENIEEFCKKLMGKAGDESMEFNDMFWAVHPGGPAILNRLETKLKLEKEKLESSRRALVDYGNVSSNTILYVMEYMRDELKKKGDAAQEWGLGLAFGPGITFEGLLIRSLTSS
As for B6, the hispidin-synthase activity entry is on record as “had hispidin-synthase activity” and the “hispidin-synthase activity, comparison among PKS” value is reported as “highest activity”.

B7: SEQ ID NO: 137: plant type III polyketide synthase (PKS) (protein, listed as Piper methysticum)
chain: MSKTVEDRAAQRAKGPATVLAIGTATPANVVYQTDYPDYYFRVTKSEHMTKLKNKFQRMCDRSTIKKRYMVLTEELLEKNLSLCTYMEPSLDARQDILVPEVPKLGKEAADEAIAEWGRPKSEITHLIFCTTCGVDMPGADYQLTKLLGLRSSVRRTMLYQQGCFGGGTVLRLAKDLAENNAGARVLVVCSEITTAVNFRGPSDTHLDLLVGLALFGDGAAAVIVGADPDPTLERPLFQIVSGAQTILPDSEGAINGHLREVGLTIRLLKDVPGLVSMNIEKCLMEAFAPMGIHDWNSIFWIAHPGGPTILDQVEAKLGLKEEKLKSTRAVLREYGNMSSACVLFILDEVRKRSMEEGKTTTGEGFDWGVLFGFGPGFTVETVVLHSMPIPKADEGR
B7: the hispidin-synthase activity result is on record as “had hispidin-synthase activity”.

B8: SEQ ID NO: 127: plant type III polyketide synthase (PKS) (protein, listed as Physcomitrella patens)
chain: MSKTVEDRAAQRAKGPATVLAIGTATPANVVYQTDYPDYYFRVTKSEHMTKLKNKFQRMCDRSTIKKRYMVLTEELLEKNLSLCTYMEPSLDARQDILVPEVPKLGKEAADEAIAEWGRPKSEITHLIFCTTCGVDMPGADYQLTKLLGLRSSVRRTMLYQQGCFGGGTVLRLAKDLAENNAGARVLVVCSEITTAVNFRGPSDTHLDLLVGLALFGDGAAAVIVGADPDPTLERPLFQIVSGAQTILPDSEGAINGHLREVGLTIRLLKDVPGLVSMNIEKCLMEAFAPMGIHDWNSIFWIAHPGGPTILDQVEAKLGLKEEKLKSTRAVLREYGNMSSACVLFILDEVRKRSMEEGKTTTGEGFDWGVLFGFGPGFTVETVVLHSMPIPKADEGR
Regarding B8, the hispidin-synthase activity result is “had hispidin-synthase activity”.

B9: SEQ ID NO: 121: type III polyketide synthase PKS2 from Aquilaria sinensis (protein, listed as Aquilaria sinensis)
chain: MSQAIADNAYRHHLKRAPTPGKATVLALGKAFPKQVIPQENLVEGYIRDTKCEDVSIKEKLERLCKTTTVKTRYTVMSKEILDNYPELVTEGSPTIRQRLEIANPAVVEMAKEASLACIKQWGRPAGDITHIVYVSSSEIRLPGGDLYLANELGLKNDINRIMLYFLGCYGGVTGLRVAKDIAENNPGSRILLTTSETTILGFRPPNKSRPYDLVGAALFGDGAAAVIIGANPEIGRESPFMELNFALQQFLPGTHGVIDGRLSEEGINFKLGRDLPQKIEDNIEDFCRKLMIKADGDLKEFNELFWAVHPGGPAILNRLESILDLKNGKLECSRRALMDYGNVSSNTIFYVMEYMREELKREGSEEWGLALAFGPGITFEGILLRSL
For the molecule B9, the hispidin-synthase activity entry was “had hispidin-synthase activity” and the “hispidin-synthase activity, comparison among PKS” value was “highest activity”.

B10: SEQ ID NO: 119: type III polyketide synthase PKS1 from Aquilaria sinensis (protein, listed as Aquilaria sinensis)
chain: MGSQDVAGGALKGVNPGKATILALGKAFPYQLVMQEFLVDGYFKNTSCKDQELKQKLARLCKTTTVKTRYVVMSEEILNKYPELAVEGIPTLKQRLDIGNEALTEMAIEASQACIKKWGRPASEITHLVYVSSSEARLPGGDLYLAQGLGLSPRTKRVVLYFMGCSGGVAGLRVAKDIAENNPGSRVLLATSETTIVGFKPPSAHRPYDLVGVALFGDGAGAMVIGSDPLPGTESPLFELHTAIQNFLPNTEKTIDGRLTEEGISFKLARELPQIVEDHIEGFCGQLTGVIGLSHKQYNKMFWAVHPGGPAILNRVEKRLDLHPNKLDASRRALEDYGNASSNSIVYVLDYMIEETLKMKTESLEPSEWGLILAFGPGVTFEGILARNLAV
Regarding B10, the hispidin-synthase activity result was “had hispidin-synthase activity” and the “hispidin-synthase activity, comparison among PKS” value is “highest activity”.
